This passage reports protein production results from a protein production outcome set (Wang et al. 2014).
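Further: failed if final PepcDB status was selected cloned or expressed and not failed if soluble or beyond.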

The nature of this series: label from the status in PepcDB records.
Take “MKKYIKPSAILLTLILSACSETKTVQQLISSGNSFVQVRDFSSAVIEFKNAVRLEPKNANARFELGNAYLEQGNFVNAEKEFSRAVELGLDFSNIAALMARVNTHLDKADEVYQLVERSDELTDDDYVEVLTYAGITALKQNRISQGQDYLTQAIVINPDAAYSRIAQAYVHYADREFSQGIVVISNLLNEKTDATEAMLIQGHLYYAQQEFEHASGAFALYLNYHPQDHKIRFFEVNSLIKAEKFEQANVITNTLLKAFKDSSLALQFKAQLEYQKKNYSAARDYAEEALQHGQDFLGAKIIAGVSSYFLGDVEQAYTKLNGIVERVPNNLLVKKILAVTKFELGYYADAAENFSSLEGLTSADLQLLKSSSASLMGIGYVDNALSLINKAEEFSPDNAQVAAQKGLMLLSQNDISGINSMKRAVELDPSLTYVQVALAIGYLNIGEENKAQKIADLYKDKIDEADVGHVLEGFIYLNNKQSANAQVSFEKALSLNPKNIASLYNLGLLHKRAAENSKAIIYFDRLIALSPEHKGALKSLVSIAVNKEYLEEVLTILVRNHQTDNLYSIIALAQVLRIDQQVAKAVTTLGGIDKSVKLTSNYFMLLGDSYLELEKYLKANAIFEQGLALEPKDYLLNIRYISTLEWLGDYTAALDQTRRLHKYYPNNINITTSLIYLEVRNKNYQEAKYLLEAIKGQKSNHHQLDAIAGEIYSYEKDYPQAIEHFSVVYEKEPTELNLLNLARTLGFDKQNKQAERLLELYLDKNPNNSKIRFLLAELYNPQDRKKRVVQYQVLSTQIPNNAIVFNNLAWNQFKLKQTAEALINIEKAYQLQPDSLAIQESYGVILIANNKLSQGINILESAILSGSTDAAAKEYLIKAKTLLNNQGKSSG”: the protein production result is listed as “failed”.

Take “MKKYSTIPTPCYVLESERLEKNAKILEIVRQQSGAKVLLALKGYAFWREFGILRQKLNGCCASGLYEAKLAFEEFGGRESHKEICVYSPAFKEAEMSAILPLATSIIFNSFYQYATYKDRILDKNKQLENLGLSPIKMGLRINPLYSEVTPAIYNPCSKVSRLGITPSGFEKGVKEHGLEGVSGLHFHTHCEQNADALCRTLEHVEKHFRPYLENMAWVNFGGGHHITKSDYDVNLLIQTIKDFKERYHNIEVILEPGEAIGWQCGFLIASVIDIVQNDQEIAILDASFSAHMPDCLEMPYRPSIFKVSVENDEELIEVEKGENQGAFSYFLGGPTCLAGDFMGSFSFETPLKRGDKIVFQDMLHYTIVKNNSFNGVPLPSLARLDQQGFKILKNFSYEDYKNRN”: the protein production result is “failed”.

On to “MKLAMIGFGQAGGKIVDKFLEYDKETGSGIVRSAVAVNTAKADLLGLEHIPEENRVLIGQARVKGHGVGADNELGAEIAEEDIDEVQGAIDNIPVHEVDAFLIVAGLGGGTGSGGSPVVAKHLKRIYTEPVYGLGVLPGSDEGGIYTLNAARSFQTFVREVDNLMVFDNDAWRQTGESVEGGYDHINEEIVRRFGVLFGAGEIEAGDNVAESVVDSSEIINTLDGGGVSTVGYASEDVEVSSGGGGLLSRFKGDDSSDDSMDTANTTNRITSLVRKAALGRLTLPCEIEGAERALLVMAGPPEHLNRKGIERGRKWLEEQTGSMEVRGGDYPTNAPKVAASILLAGVHNVPRIKELQQVAIEAQDNIDDIRNQSEDNLEDLVEDDEDELDPLF”, for which the protein production entry is given as “failed”.

As for “MKLDHNFSNQAIDAFIKISALSVLVLWCFSILKPFLLLMVWGGIIATALYPIVAFFSKKTALSESKVSIILTVIGVLLLLIPLVALSTGIYTSGTELFLGYQDGSIAIPKPKERMQDWPIIGHEAYSFMSLASSNLESLLFKYSAEVKVVAAKAASLVGSLGGGFIQFIVSTIIAGVFMANAAKCERAFILITNRLTGKHGEELIKLSKITIRSVVQGVIGVAVIQATMAGLGMAVVGISASVLGLWVFLVLVFAIIQLPPILILLPIIFYVFSVDTTTAGVLFAVWCVLVSSSDAILKPVLLSRGSHIPIIVILLGALGGMAMSGIVGLFVGAVVLSLTYQMFTVWLKNEAEETQNAKDNP”, the protein production entry is reported as “failed”.

With “MKLEAEAVAPSNIAIVKYWGKRDRELNLPLNSSLSISLDSLWVRSRVIFDESLDKDEVIINGKRLSENEVREYAGRVLRRFRDLYGKELFARVESTTNFPSSAGLASSAAGIAALTYASNAALGLGLSNRELSKIARVGSGSACRSMFGGFVKWNRGELESGDDSFCEEIFPPDHWPDLVDIIPIFGEEKKKVSSRTGMENTATSSALMRCRLQFIEETFNEVIDAIRTKNAGKFFQLTMRHSNSMHAVILDSWPPMNYLNEKSFRVMEWVVEFGKAAYTFDAGPNPHIFVLEKDVDEVLKFLNEIGSTKTIVSRVGKGPYLI”, the protein production entry is “failed”.

Consider “MKLERQKLLAKVAYLYYMEGKSQSEIANELGIYRTTISRMLAKAREEGLVRIEISDFNPEIFQLESYFKSKYHLKDIEIVSSRKDSDTSEIEKDLAHVAAAMIRKKIKENDKVGIAWGRTLSKVVEAMRPHPVSQVSFVPLAGGPSHINARYHVNTLVYEMSRRFQGSCTFINATLVQENANLAKGILTSKYFEGLMDNWEKLDVAIVGVGGKPKSNEQQWLDLLNQDDFQCLDEEAAVGEITCRFFNHSGDPVNQHLAKRTIGITLEQLQKVPNRIAVAHGNYKAAALLAVLKKGYINHLVTDFSTALNILRLDKDTFVDTIYQKS”, for which the protein production result is “not failed”.

As for “MKLESNAFEKAFSSDPAPLGLAGFAFTTFLLSFINAGLIPASGVNVVVPLAIAYGGLAQLITGSWEMRRGNNFGFTAFTSYGSFWIFYALMVILADLHIINALPAVAVGWALILWGIFTLYMWGGAMMASMSLNLTFLFLWLTFVVLGLGAIYSSVALTHAGGYLGILSAFFAAYTSFAIIINSMKPGTIPVGPGMFHKKAGK”, the protein production entry is “failed”.

As to “MKLFKELEETKEQVIKMAKLVQEAIDKATEALNKQNVELAEEVIKGDDTIDLLEVDIERRCIRMIALYQPEAGDLRMIMGIYKIVSDLERMGDEAENIAERAILLAEEPPLKPYVNINFMSEIVKEMVNDSVISFIQQDTLLAKKVIEKDDTVDELYHQLERELMTYVLEDPRNIKRAMHLSFVARHYERIADHAENVAEAAIYLSEGEIVKHQHIKEKGE”, the protein production result was “not failed”.

On to “MKLFSSGRKTPTSSPASSHAGAMDETVGVTSTSEAANVATQPVPTPVEDVPNGVRTAAGWCWRMIVIAAFIYGLYQVLHAASEVSVPVAVALMLTAAMWPLANWLSRHHIHRGIASGICLLLLVILVGGVFTLVGAQIALQWRQLGDQSVASFKQALQWLAKSPLHTNEAQLTHLMQKAEAAMAGSQGRIASTAAAAGSQIGRFGAGLVMALFATFFFVYEGDKLAEKSAVLIPREHRAAILDAAKRGWVALVAYVRAAVIVAFVDGLGAGIGAAIIGSSMSVAIGALTFILAFVPIVGALTAGVVAVGVVLVTLGFFKAFIMLIVFVAVMQIEGHVLQPFLLGKAVSIHPLIVLLGIAVGAIISGIVGALFAIPIVAFGVAFIKALNPETPANEVPPNHDDLAAEHT”, for which the protein production result was “failed”.

For the sequence “MKLIKNGKVLQNGELQQADILIDGKVIKQIAPAIEPSNGVDIIDAKGHFVSPGFVDVHVHLREPGGEYKETIETGTKAAARGGFTTVCPMPNTRPVPDSVEHFEALQKLIDDNAQVRVLPYASITTRQLGKELVDFPALVKEGAFAFTDDGVGVQTASMMYEGMIEAAKVNKAIVAHCEDNSLIYGGAMHEGKRSKELGIPGIPNICESVQIARDVLLAEAAGCHYHVCHVSTKESVRVIRDAKRAGIHVTAEVTPHHLLLTEDDIPGNNAIYKMNPPLRSTEDREALLEGLLDGTIDCIATDHAPHARDEKAQPMEKAPFGIVGSETAFPLLYTHFVKNGDWTLQQLVDYLTIKPCETFNLEYGTLKENGYADLTIIDLDSEQEIKGEDFLSKADNTPFIGYKVYGNPILTMVEGEVKFEGDK”, the protein production result is “failed”.

Take “MKLIKVILSSISQVVLINNPYTGLFILIGLFAVNWKVGISAMIASVMTWILAPYMNYTKEEIESGLAGFNPVLTAIALTLFLDSNWSGILITFVATILTLPIGAAVREVLKPHKIAFLTSPYVIMTWITLLIPNQLKTLHTQIDIIPEHIEKVSLNNDHTRVHFFQSVLDGFGQIFLMPSIIGGLLILIGIFIGSKKAGIVSIIANIIGFLIIILLGGDYSSINEGIFGYNVVLSAIALGVTFETAIHSYLAMILGIVLTAFIHLGLSTLLAPLGLPTLTWPFIFATWIMLFAGIKNQSV”: the protein production entry is “failed”.

For “MKLKEVTEGKVRIFVPDPTGYMVEGKFDPSWAPVFYNPKMTFNRDLSVIVVSILKPKIIVDALSATGIRGIRYYVESWKSEQLILNDKNPNATSLIQINAKNNGIENAKIYNKDANALLYEVKSDYIDIDPFGSPAPFILSSLNAATRNGIVAFTATDLSPLEGSSPTSCRRKYDAINHKLSSSKELGLRVLIGKIIREAAILEKTVYPLFSFYADYYYRLFVRVENGARKADDNINKHLKYFGECPRCGFQTFVEENCKTKCPVCGEIFSIIGPLYIGPLYSMEFLKRIMDLYSNFNYLTSFNRIQKLLNVIEKEARFKNVFYNISKLASKLKISAIPPIESILECLGDASRTHFAPTGIRTDKEYEEITKCIKSLR”, the protein production entry was “failed”.

For “MKLKGKGIGKVVVEGEVIVSRKPLSFLGGVDPETGTITDPESDIKGESITGKILVFPKGKGSTVGSYILYALSKNGKGPKAIIVEEAEPIVTAGAIISGIPLITNVDISKLKTGMRVRINPQEGEVEILAEGNLLEHHHHHH”, the protein production entry is “failed”.

For “MKLKSYILVGYIISTLLTILVVFWAVQKMLIAKGEIYFLLGMTIVASLVGAGISLFLLLPVFTSLGKLKEHAKRVAAKDFPSNLEVQGPVEFQQLGQTFNEMSHDLQVSFDSLEESEREKGLMIAQLSHDIKTPITSIQATVEGILDGIIKESEQAHYLATIGRQTERLNKLVEELNFLTLNTARNQVETTSKDSIFLDKLLIECMSEFQFLIEQERRDVHLQVIPESARIEGDYAKLSRILVNLVDNAFKYSAPGTKLEVVAKLEKDQLSISVTDEGQGIAPEDLENIFKRLYRVETSRNMKTGGHGLGLAIARELAHQLGGEITVSSQYGLGSTFTLVLNLSGSENKA”, the protein production result is “failed”.

With “MKLLAITSCPNGIAHTYMAAENLQKAADRMGVQMKVETQGGIGVENELTEQEIREADAIIIAADRSVNKDRFIGKKLLAVGVQEGIRKPEELIQKAIGGDIPVYRSAVKTEASAQTEKKQNPIYRHLMNGVSFMVPFIVVGGLLIAVALTLGGEKTPKGLVIPDDSFWKTIEQIGAASFSFMIPILAGYIAYSIADKPGLVPGMIGGYIAATGSFYGSGSGAGFLGGIIAGFLAGYAALAIKKLKVPKAIQPIMPIIVIPVVSSLIVGLAFVLLIGAPVAQIFESLTVWLAGMQGSSSILLALILGAMISFDMGGPVNKVAFLFGSAMIGEGNYEIMGPIAVAICIPPIGLGIATFLGKRKFQAQEREMGKAAFTMGLFGITEGAIPFAAQDPLRVIPSIMAGSMTGSVIAMIGNVGDRVAHGGPIVAVLGAVDHVLMFFIAVIAGSLVTSLLVNVLKKEVTAAPAGISEAAAGNDIPQPNIEIEAESKKIEKPEITKLTDIIDTDLIEPHLSGDTRDDIIDEMIQKLSRKGVLHSESEFKQAIINRELEGTTAIGMNIAIPHGKSDAVKKPSVAFGIKRSGVDWRSLDGTDAKLIFMIAVPKESGGNEHLKLLQMLSRKLMDDTYRDKLLSAQTKEEAYKLLDEII”, the protein production entry was “failed”.
